Data from patent US20170306033A1 (Amgen, published 2017).

T1: human PAC1 receptor (human, UniProt P41586 21-468)
T1 sequence: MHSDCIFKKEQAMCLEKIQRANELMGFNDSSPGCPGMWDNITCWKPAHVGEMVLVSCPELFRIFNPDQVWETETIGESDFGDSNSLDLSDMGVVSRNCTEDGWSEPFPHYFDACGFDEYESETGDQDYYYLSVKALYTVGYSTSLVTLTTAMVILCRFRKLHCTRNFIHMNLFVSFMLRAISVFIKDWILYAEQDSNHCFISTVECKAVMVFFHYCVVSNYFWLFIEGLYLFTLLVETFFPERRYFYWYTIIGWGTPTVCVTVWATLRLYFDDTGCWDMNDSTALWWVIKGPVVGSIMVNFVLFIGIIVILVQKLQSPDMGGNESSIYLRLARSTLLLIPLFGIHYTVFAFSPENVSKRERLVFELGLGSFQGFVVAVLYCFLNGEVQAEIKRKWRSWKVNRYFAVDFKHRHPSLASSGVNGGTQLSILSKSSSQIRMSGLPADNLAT


Legend:
human PAC1 receptor = target: T1, human PAC1 receptor; experiment: cell-based or functional assay
human CGRP receptor = human CGRP receptor (human, UniProt Q16602 23-461; O60894 27-148); experiment: cell-based or functional assay
Chain of human CGRP receptor (Q16602 23-461 limits assumed, chain 1 of 2): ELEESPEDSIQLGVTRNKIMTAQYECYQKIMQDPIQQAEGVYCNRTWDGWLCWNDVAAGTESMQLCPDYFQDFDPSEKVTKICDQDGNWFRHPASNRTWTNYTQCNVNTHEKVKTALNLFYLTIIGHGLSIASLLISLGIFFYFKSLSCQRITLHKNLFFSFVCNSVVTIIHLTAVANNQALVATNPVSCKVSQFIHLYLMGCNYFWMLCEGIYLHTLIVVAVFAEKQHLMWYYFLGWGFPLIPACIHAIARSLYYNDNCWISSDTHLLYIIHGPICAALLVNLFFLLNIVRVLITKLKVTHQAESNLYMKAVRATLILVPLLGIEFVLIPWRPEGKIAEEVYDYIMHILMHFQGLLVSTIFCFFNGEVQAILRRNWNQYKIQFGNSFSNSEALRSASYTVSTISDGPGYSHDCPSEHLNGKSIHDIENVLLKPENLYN
Chain of human CGRP receptor (O60894 27-148 limits assumed, chain 2 of 2): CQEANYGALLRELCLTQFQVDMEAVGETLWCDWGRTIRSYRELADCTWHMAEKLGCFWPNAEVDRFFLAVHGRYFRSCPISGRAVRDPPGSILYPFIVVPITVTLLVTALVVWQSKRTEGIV

Row | Binder | % inhibition of human PAC1 (human PAC1 receptor) | % inhibition of human CGRPR (human CGRP receptor)
1 | iPS:327875 (bispecific antibody, human IgG1, kappa, N297G) light 1: not shown heavy 1: not shown light 2: EIVLTQSPGTLSLSPGERATLSCRASQSVSSGYLTWYQQKPGQAPRLLIYGASSRATGIPDRFSGSGSGTDFTLTISRLEPEDFAVYYCQQYGNSLSRFGKGTKLEIKRTVAAPSVFIFPPSDEQLKSGTASVVCLLNNFYPREAKVQWKVDNALQSGNSQESVTEQDSKDSTYSLKSTLTLSKADYEKHKVYACEVTHQGLSSPVTKSFNRGEC heavy 2: QVQLVESGGGVVQPGRSLRLSCAASGFTFSSYGMHWVRQAPGKELEWVAVIWYDGSNKYYAESVKGRFIISRDKSKNTLYLQMNSLRAEDTAVYYCARAGGIAAAGLYYYYGMDVWGQGTTVTVSSASTKGPSVFPLAPSSKSTSGGTAALGCLVKDYFPEPVTVSWNSGALTSGVHTFPAVLQSSGLYSLESVVTVPSSSLGTQTYICNVNHKPSNTKVDKKVEPKSCDKTHTCPPCPAPELLGGPSVFLFPPKPKDTLMISRTPEVTCVVVDVSHEDPEVKFNWYVDGVEVHNAKTKPCEEQYGSTYRCVSVLTVLHQDWLNGKEYKCKVSNKALPAPIEKTISKAKGQPREPQVYTLPPSRKEMTKNQVSLTCLVKGFYPSDIAVEWESNGQPENNYKTTPPVLKSDGSFFLYSKLTVDKSRWQQGNVFSCSVMHEALHNHYTQKSLSLSPGK | 10% | 83%
2 | iPS:327876 (bispecific antibody, human IgG1, kappa, N297G) light 1: DIQMTQSPSSLSASVGDRITITCRASQSISRYLNWYQQKPGKAPKLLIYAASSLQSGIPSRFSGSGSGTDFTLTINSLQPEDFATYFCQQSYSPPFTFGQGTKVDIKRTVAAPSVFIFPPSDEQLKSGTASVVCLLNNFYPREAKVQWKVDNALQSGNSQESVTEQDSKDSTYSLESTLTLSKADYEKHKVYACEVTHQGLSSPVTKSFNRGEC heavy 1: not shown light 2: EIVLTQSPGTLSLSPGERATLSCRASQSVSSGYLTWYQQKPGQAPRLLIYGASSRATGIPDRFSGSGSGTDFTLTISRLEPEDFAVYYCQQYGNSLSRFGQGTKLEIKRTVAAPSVFIFPPSDEQLKSGTASVVCLLNNFYPREAKVQWKVDNALQSGNSQESVTEQDSKDSTYSLKSTLTLSKADYEKHKVYACEVTHQGLSSPVTKSFNRGEC heavy 2: not shown | 11% | 77%
3 | iPS:327739 (bispecific antibody, human IgG1, kappa, lambda, N297G) light 1: not shown heavy 1: not shown light 2: QSVLTQPPSVSAAPGQKVTISCSGSSSNIGNNYVSWYQQLPGTAPKLLIYDNNKRPSGIPDRFSGSKSGTSATLGITGLQTGDEADYYCGTWDSRLSAVVFGGGTKLTVLGQPKANPTVTLFPPSSEELQANKATLVCLISDFYPGAVTVAWKADGSPVKAGVETTKPSKQSNNKYAAKSYLSLTPEQWKSHRSYSCQVTHEGSTVEKTVAPTECS heavy 2: QVQLVESGGGVVQPGRSLRLSCAASGFTFSSFGMHWVRQAPGKGLEWVAVISFDGSIKYSVDSVKGRFTISRDNSKNTLFLQMNSLRAEDTAVYYCARDRLNYYESSGYYHYKYYGMAVWGQGTTVTVSSASTKGPSVFPLAPSSKSTSGGTAALGCLVKDYFPEPVTVSWNSGALTSGVHTFPAVLQSSGLYSLESVVTVPSSSLGTQTYICNVNHKPSNTKVDKKVEPKSCDKTHTCPPCPAPELLGGPSVFLFPPKPKDTLMISRTPEVTCVVVDVSHEDPEVKFNWYVDGVEVHNAKTKPCEEQYGSTYRCVSVLTVLHQDWLNGKEYKCKVSNKALPAPIEKTISKAKGQPREPQVYTLPPSRKKMTKNQVSLTCLVKGFYPSDIAVEWESNGQPENNYKTTPPVLKSDGSFFLYSKLTVDKSRWQQGNVFSCSVMHEALHNHYTQKSLSLSPGK | 76% | 79%
4 | iPS:327740 (bispecific antibody, human IgG1, kappa, lambda, N297G) light 1: not shown heavy 1: not shown light 2: QSVLTQPPSVSAAPGQKVTISCSGSSSNIGNNYVSWYQQLPGTAPKLLIYDNNKRPSGIPDRFSGSKSGTSATLGITGLQTGDEADYYCGTWDSRLSAVVFGGGTKLTVLGQPKANPTVTLFPPSSEELQANKATLVCLISDFYPGAVTVAWKADGSPVKAGVETTKPSKQSNNKYAAKSYLSLTPEQWKSHRSYSCQVTHEGSTVEKTVAPTECS heavy 2: QVQLVESGGGVVQPGRSLRLSCAASGFTFSSFGMHWVRQAPGKGLEWVAVISFDGSIKYSVDSVKGRFTISRDNSKNTLFLQMNSLRAEDTAVYYCARDRLNYYESSGYYHYKYYGMAVWGQGTTVTVSSASTKGPSVFPLAPSSKSTSGGTAALGCLVKDYFPEPVTVSWNSGALTSGVHTFPAVLQSSGLYSLESVVTVPSSSLGTQTYICNVNHKPSNTKVDKKVEPKSCDKTHTCPPCPAPELLGGPSVFLFPPKPKDTLMISRTPEVTCVVVDVSHEDPEVKFNWYVDGVEVHNAKTKPCEEQYGSTYRCVSVLTVLHQDWLNGKEYKCKVSNKALPAPIEKTISKAKGQPREPQVYTLPPSRKKMTKNQVSLTCLVKGFYPSDIAVEWESNGQPENNYKTTPPVLKSDGSFFLYSKLTVDKSRWQQGNVFSCSVMHEALHNHYTQKSLSLSPGK | 58% | 74%
5 | iPS:327741 (bispecific antibody, human IgG1, kappa, lambda, N297G) light 1: DIQLTQSPSFLSASVGDRVTITCRASQSIGRSLHWYQQKPGKAPKLLIKYASQSLSGVPSRFSGSGSGTEFTLTISSLQPEDFATYYCHQSSRLPFTFGPGTKVDIKRTVAAPSVFIFPPSDEQLKSGTASVVCLLNNFYPREAKVQWKVDNALQSGNSQESVTEQDSKDSTYSLESTLTLSKADYEKHKVYACEVTHQGLSSPVTKSFNRGEC heavy 1: not shown light 2: QSVLTQPPSVSAAPGQKVTISCSGSSSNIGNNYVSWYQQLPGTAPKLLIYDNNKRPSGIPDRFSGSKSGTSATLGITGLQTGDEADYYCGTWDSRLSAVVFGGGTKLTVLGQPKANPTVTLFPPSSEELQANKATLVCLISDFYPGAVTVAWKADGSPVKAGVETTKPSKQSNNKYAAKSYLSLTPEQWKSHRSYSCQVTHEGSTVEKTVAPTECS heavy 2: QVQLVESGGGVVQPGRSLRLSCAASGFTFSSFGMHWVRQAPGKGLEWVAVISFDGSIKYSVDSVKGRFTISRDNSKNTLFLQMNSLRAEDTAVYYCARDRLNYYESSGYYHYKYYGMAVWGQGTTVTVSSASTKGPSVFPLAPSSKSTSGGTAALGCLVKDYFPEPVTVSWNSGALTSGVHTFPAVLQSSGLYSLESVVTVPSSSLGTQTYICNVNHKPSNTKVDKKVEPKSCDKTHTCPPCPAPELLGGPSVFLFPPKPKDTLMISRTPEVTCVVVDVSHEDPEVKFNWYVDGVEVHNAKTKPCEEQYGSTYRCVSVLTVLHQDWLNGKEYKCKVSNKALPAPIEKTISKAKGQPREPQVYTLPPSRKKMTKNQVSLTCLVKGFYPSDIAVEWESNGQPENNYKTTPPVLKSDGSFFLYSKLTVDKSRWQQGNVFSCSVMHEALHNHYTQKSLSLSPGK | 70% | 83%
